Source: the supplement of paper PMC10567573

B1: TRIM55 (parent)
chain: FQMEKIEHGYENMNHFTVNLNREE
B2: KLHL12 (parent)
chain: REESLPNLLQYVRMPLLTPRYITD

Variants of: B1
Test: protein stability index of a GFP-peptide fusion (GPS, HEK-293T) (PSI 1-6); higher = more stable
Settings: c terminus: a fixed tail appended
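Also: lentivirally expressed fusions sorted by FACS into six bins by GFP to DsRed ratio, PSI derived from sequencing read proportions per bin multiplied by bin number.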

Protein stability index of substitutions, site by site:
N14: L 2.29 | M 2.29 | P 2.79 | Q 3.11 | R 2.86 | S 2.68 | T 2.69 | V 2.15 | Y 3.78
H15: A 2.1 | C 2.22 | D 3.97 | E 3.62 | F 2.14 | G 3.72 | I 1.99 | K 3.15 | L 1.8 | M 1.95 | N 3.77 | P 1.5 | Q 3.57 | R 3.12 | S 3.14 | T 2.76 | V 1.76 | W 1.98 | Y 1.82
F16: A 4.17 | C 4.06 | D 4.71 | E 4.5 | G 4.23 | H 4.09 | I 3.65 | K 4.52 | L 4.21 | M 3.87 | N 4.31 | P 4.4 | Q 4.23 | R 4.25 | S 4.41 | T 4.36 | V 4.01 | W 1.96 | Y 3.29
T17: A 2.59 | C 2.49 | D 4.07 | E 4.27 | F 1.74 | G 2.86 | H 3.4 | I 2.06 | K 3.31 | L 2.31 | M 2.77 | N 3.76 | P 3.7 | Q 3.75 | R 3.1 | S 3.03 | V 2.25 | W 1.93 | Y 1.92
V18: A 3.24 | C 2.03 | D 3.94 | E 3.61 | F 3.21 | G 3.74 | H 3.66 | I 2.94 | K 3.27 | L 3.08 | M 3.49 | N 3.52 | P 2.11 | Q 4.15 | R 3.73 | S 3.77 | T 3.86 | W 1.69 | Y 2.39
N19: A 3.17 | C 2.65 | D 3.37 | E 3.28 | F 2.29 | G 2.72 | H 2.24 | I 2.05 | K 2.47 | L 2.22 | M 2.27 | P 3.4 | Q 2.68 | R 2.4 | S 2.16 | T 2.27 | V 2.29 | W 2.09 | Y 1.86
L20: A 3.2 | C 2.33 | D 3.47 | E 3.53 | F 2.71 | G 3.43 | H 3.23 | I 2.64 | K 3.04 | M 2.51 | N 3.5 | P 2.88 | Q 3.33 | R 3.01 | S 3.2 | T 2.7 | V 1.91 | W 2.35 | Y 2.42
N21: A 2.89 | C 1.82 | D 3.65 | E 3.54 | F 2.07 | G 2.86 | H 2.15 | I 2.59 | K 2.87 | L 2.2 | M 2.1 | P 2.94 | Q 3.07 | R 2.51 | S 3.08 | T 2.65 | V 2.4 | W 1.13 | Y 2.5
R22: A 2.73 | C 3.09 | D 3.32 | E 3.77 | F 1.98 | G 2.67 | H 2.64 | I 2.4 | K 3.75 | L 1.96 | M 2.44 | N 3.57 | P 2.99 | Q 3.1 | S 3 | T 2.99 | V 2.56 | W 2.59 | Y 2.31
E23: A 1.77 | C 1.67 | D 3.09 | F 1.88 | G 2.28 | H 1.77 | I 1.64 | K 2.26 | L 2.17 | M 2.27 | N 2.87 | P 2.29 | Q 2.39 | R 1.88 | S 2.67 | T 1.92 | V 2.62 | Y 2.23
E24: A 2.27 | C 2.4 | D 2.77 | F 1.77 | G 1.97 | H 2.43 | I 1.98 | K 2.57 | L 3.02 | M 1.57 | N 2.33 | P 2.37 | Q 3 | R 3.3 | S 2.06 | T 2.12 | V 2.49 | W 2.1 | Y 1.57

Variants of: B2
Test: as above
Settings: c terminus: a fixed tail appended

Protein stability index, by site and new letter:
R1: F 2.43 | M 2.25 | I 1.83 | W 1.61 | D 2.63 | A 2.23 | L 2.83 | C 1.96 | G 2.23 | E 2.8
T23: L 2.02 | H 2.58 | R 3.83 | I 2.12 | C 2.03 | P 2.57
S4: Y 2.45 | P 2.79 | M 2.21 | C 2.71 | D 2.56 | A 2.65
N7: V 2.07 | S 2.26 | F 2.23 | P 3.19 | D 2.93 | I 1.9 | M 2.03
V12: R 3 | G 2.91 | P 3.45 | Q 3.07 | C 1.98 | F 1.86
R13: P 2.97 | W 2.84 | D 2.48 | S 1.52 | T 1.64 | N 2.58 | G 1.76
Q10: T 2.28 | S 2.33 | L 2.27 | E 2.41 | F 2.22
I22: A 2.76 | E 3.22 | W 1.93 | T 3.39 | L 2.4 | D 3.27 | G 2.4
L5: C 2.79 | H 2.51 | W 2.21 | F 2.16 | T 2.79 | S 2.8
P6: D 2.51 | G 2.28 | F 1.93 | E 2.15 | L 2 | K 1.71
E3: I 2.02 | W 2.02 | L 2.11 | G 2.56 | N 2.42 | K 2.78
M14: V 2.87 | S 3.13 | A 2.42 | C 2.02 | T 2.97 | E 3.52 | H 2.89 | L 2.35 | G 3.11
R20: W 1.22 | V 1.92 | G 3.29 | Y 1.67 | E 2.7 | P 2.21 | C 2.12 | Q 2.54 | K 3.48 | I 2.68
T18: V 1.97 | P 2.29 | A 2.36 | W 1.55
L17: C 2.85 | A 3.51 | Q 2.86 | K 3.51 | Y 2.98 | H 2.83
L8: E 3 | P 3.18
Y21: V 2.72 | L 2.62 | G 3.4 | K 3.93 | H 3.08 | F 2.22
P15: I 3.9 | G 3.67 | Y 4.19
E2: M 2.4 | N 2.51 | W 3.14 | H 2.92 | R 2.85
L9: F 2.27 | K 2.57 | R 3.14 | D 3.1 | C 3.33
P19: M 2.02 | A 2.74 | W 2.41 | D 2.9 | E 3.03
Y11: G 3.52 | T 3.06 | P 3.56 | M 2.34
L16: D 2.69 | H 3.18 | Y 2.98 | R 3.25
D24: V 1.57
